The text below walks through data of patent publication US20240131074A1 (published 2024).

The term Kd denotes the concentration at which binding is half-saturated.

This experiment deals with human PSMA protein (ELISA) (human, UniProt Q04609 44-750). The experiment in a line: BLI (Octet). In general terms: BLI is a label-free optical method that tracks binding on a fibre tip over time.
Sequence of human PSMA protein (ELISA) (Q04609 44-750): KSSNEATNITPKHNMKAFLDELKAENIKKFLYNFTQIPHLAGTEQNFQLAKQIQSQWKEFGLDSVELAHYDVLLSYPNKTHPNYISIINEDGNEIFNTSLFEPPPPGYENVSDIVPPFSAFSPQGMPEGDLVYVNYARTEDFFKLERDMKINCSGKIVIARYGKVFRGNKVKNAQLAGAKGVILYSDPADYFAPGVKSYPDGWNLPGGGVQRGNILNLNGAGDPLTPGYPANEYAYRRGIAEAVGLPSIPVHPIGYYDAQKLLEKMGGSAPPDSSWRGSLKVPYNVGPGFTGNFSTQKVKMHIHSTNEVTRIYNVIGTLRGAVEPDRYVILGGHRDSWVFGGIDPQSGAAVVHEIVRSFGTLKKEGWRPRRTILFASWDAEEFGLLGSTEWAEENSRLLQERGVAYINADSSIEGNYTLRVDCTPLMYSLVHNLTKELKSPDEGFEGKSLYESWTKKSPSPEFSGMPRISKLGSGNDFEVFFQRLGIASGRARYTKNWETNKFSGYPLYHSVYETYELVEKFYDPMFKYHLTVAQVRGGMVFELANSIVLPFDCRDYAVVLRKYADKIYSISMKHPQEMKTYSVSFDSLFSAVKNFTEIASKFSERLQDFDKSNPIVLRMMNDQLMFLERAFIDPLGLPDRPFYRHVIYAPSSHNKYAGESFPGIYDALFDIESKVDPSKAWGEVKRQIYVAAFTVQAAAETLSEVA

B1: Anti-PSMA heavy chain-only antibody (UniAb) Clone ID 325972 (antibody, V domains shown)
VH: EVQLLESGGGVVQPGRSLRLSCAASGFSFSGYGMHWVRQAPGKEREWVAVISYDGSNKYYADSVKGRFTISRDNSKNTLYLQMNSLRAEDTAVYYCAKDANWGQHPDHTSFDYRGQGTLVTVSS
B1 displayed a Kd of 17 nM.

B2: Anti-PSMA heavy chain-only antibody (UniAb) Clone ID 325795 (antibody, V domains shown)
VH: EVQLLESGGGLVQPGGSLRLSCAASGFTFKFYAMSWVRQAPGKGPEWVSVISGSGGSTYYADSVKGRFTISRDNSKNTLHLQMNSLRAEDTAVYFCAKEIAEASRGFDYRGQGTLVTVSS
B2 showed a Kd of 24.9 nM.
